# In the domain aggregation screens of Martell et al. (2025):
# Experiment: soluble fraction after stress (log2 fold change); higher = more stays soluble; pooled small domains, quantitative proteomics
# Conditions: stress: 50 degC
# Summary of the method: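 After stress at 50°C, the amount of each protein still soluble was measured. This was done on pooled custom libraries of small protein domains, using high-throughput quantitative proteomics. The figure given is a base-two log fold change and stands for aggregation propensity, with higher values meaning more protein stays in solution.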
row,Sequence,soluble fraction (log2)
1,HMESVQWSVFPSAKYVTIISFDPTTSGGSATAKFKVSDEARSKGFRFRIEAAIGEGIMRSEMYVIEE,0.0612
2,HMPSLGGLLALLKRNRKPDAMEALDRLISKEDRPETAEALENIREKVRNMQMREAEGLLLALMEP,-0.0372
3,HMNEFNEVVPDSLEGERLDRLLAFIGNISRSEASNIIKGGEVLINGKVVTRPSFKVTLGNRVEFSIRD,-0.387
4,HMNTEEVGSYLKKLRLEHSFTQKELAGKLYITHQAVSNWEKGKALPDIGILSQLGDIYGISIDNLLLK,-1.79
5,HMIESVMVGIKELLGDTIDQKYEKYIRLGGIPSDEVDEFNSVFSAYEKVNGNHNGKKKYDYVMNNLPIIPV,-0.26
6,HMVPAMEVALEDARRAIEQVVSGERTSVQLSSQEAMIRKLQHQMAKDANLFSRSSGVEPQRRVTIYTN,0.0136
7,HMGEMTDFETLRDMYLTGQIWNIDDLIEANGVEGRIVRRGTNYIAFNDRDGKVHKAWLHEVTINE,-0.836
8,HMSGLEDIKKKILEDAGIKKGSVKFVKVDKDYDDGIWKYEIDFVYDGKEYEYEIEVETGKILSRKTEKSD,-0.317
9,HMTNVYSLIGKRGIVVEDIDWQKGTGQVKIDGELWSVKTNEQINISKGTEVEVENIEGVKVFVKPI,0.09
10,HMTVLPTEQDAKALVGLGEEEAAKIVEGNGWTYRIGSRDGEQFMLTEDFVTSRLTLGIEKAIVMTATI,-0.915
11,HMTKTSQEDEDIMRHLDELHTRWPFLGQRKLIEELKDQGIQIGRKRLRRLMKVMGIEAIAPK,-1.29
12,HMINIQYSYNDGKETLHNLSPEVIAEKIMDDPNGYHIVWKQGMVGWVNANDIDDIAKLLRQKK,-0.0619
13,HMEDPVAQEARAAFEVGRLLAAATGPVTLAAIRRAIDLPEERLEEILRRLEESGAVRRARDGWLPG,0.0888
14,HMKININEASRYELMTIGGLDAGRADMLMQYRQKREISSADELKGINGFASYDTAKLQKSFEISP,-0.0475
15,HMRLDSELVSARLHRFMGTNRKPDGEIVEKIAAILEGHPIETLDAFLQSLNGRKIKSYGFFPTVLRREIAN,-0.319
16,HMDPSKMKIDELEIATRTATALADGGIKSVAGLIRKSASALKELDGVGDKAIAEITEALEKLGLELKG,0.0501
17,HMASVLTGMLGRVTGELAPKGIVMVGNETWTAVSEDDSVIRIGEPVEVRSVEGLILTVFRRID,-2.53
18,HMQSHIVPDVKSQHIAQAKALLESKQMKAVVIDSNFVKGLPAGIVLDQTPIGGARVKENRTIYLTINTL,-0.557
19,HMKDPSLEHIDALAGKPFQAFPGQDHRAHITAHLNFMSTNMVRNNPSIMAAIQKNILEHISLMAQEQIQL,-0.783
20,HMDEQLAWLYRKINAFSEIDKALILLYLEDKKYDEIAETLGISSVNARVKMNRIKKRLKEMINDR,-2.53
21,HMEIRNLMPILSHFLNENDIKLSRESVNLVLDRASGNRENLNNELKKIHDYSFSNKIIDFETIKKLTNLG,-0.194
22,HMRKPLDQSWVPDDDAMKILTNSGIEKEFIKNEIPEFILYWSDKGEISDSWNTKFISQIRRQWAKNQ,-0.222
23,HMDTVIAEVTASILNLRRSAGTSSDIIGKLNKGEKVSIIGGSGNWKNVRTSGGITGWVYHEYLSTY,-0.623
24,HMATVNIGNLTFTHKGDYASGTTYAKNDVVYYSTNGNAYIAKQATQGNAPTSTAHWDVFAAGSGG,-0.161
25,HMDAEEISILLEKAVLQLPEKQKMIFQLKYFEDLSYKDIQIITGGSIGGLKANYHHAVTKIEKLLS,-0.0727
26,HMDAPKPDIGMSTDQIRSSLGQPGSQTRLETGGGRIYELWIYLYPDGKELQIYFDNAKVVKMEALS,-0.613

row,Sequence,soluble fraction (log2)
1,HMKNLTERQQQIIALISGNPLITRAEIASAIGFSVKTIERELSILSEIVSYVGSKKGGHWEIQT,-1.15
2,HMVSVGDIFAGRIISNENGHLLLQLLDGSKISAQTVTDLKYNIGDVLNLEIIEEKQGLIFVRQT,-0.516
3,HMEEDPVIAAQRFLNIFRQLHIFTAAKRKEFDELLLKQPASVKGMFASLPGGSVLQEYVNNLEQNAG,-0.137
4,HMAVRTELLALPAGWHGDASRLSTALAALQGVREAVVIASEGVAYLKVHGHDWDRDGARELLQN,0.00676
5,HMSKDQKKFFIEIVSIRGFGSQIGISILNKLSIPQIINAIKTQNKKEISSIPGIGQKMTERLILELNNKFK,-0.0747
6,HMTVSADIIQKIIKTSTTDENIITIDSISNSISKLALSKITAEDIIEILEASSLVLRNSNGSWTVL,-0.617
7,HMTVGENTYELIKKDIIFGVLPPLKKLKLQELKKIYNASVSTLREILSRLTGDGFVFSEEQKGFYVSPV,0.00444
8,HMELRSPMPGLIIEIPVSKGDIIKKDQSLIILEAMKMENVLTSPINGKIADIKVNVQDTVEKNNLLITFEN,-0.164
9,HMYGVAEFDEKGNVLSIEEKPVQPKSNYAVVGLYFYPNKVVGVASGIKPSARGELEITTVNQTFLRDEELK,0.0827
10,HMSSSDYDVYNKAINLMLNLLKEPKSIEEVTASLNITKSQAITWINRALNEGKIIKTNRPVRYVVNN,-0.596
11,HMSDTVDITKLGIAGKTKEAAEALLKENGFSVESKEENSDTIEKGKVISYSPTKPKNGDRITLIVSSGKK,0.0915
12,HMQNDILIQADEIVGDYFDMDKEALKMNKQAVIADIEKRQATAQGDEASALHYAKQKVENEFEDDGSQKD,0.185
13,HMAIDWVQIKAEYISGTMSASKLAEKHGVSVYAIRKRSGKERWQELRRQNQSETANKIAEKI,-1.6
14,HMPQPEIEIAAVVPYSAGALLSRIHDDGELLAPVEYRGEGVFVHARVPADIEAAMRRGGMLSPAET,0.0913
15,HMIDENILSEEIKHYIETNNYAKDDKLPSERSLASLFNVSRALVRKSLISLVDVNYLYVKDKSGYYING,-0.0735
16,HMEGNLVEIFEDAFGRTMSTMDIEYINQFKRTGYDDEMIVSALREAVKSNALSFRYIERVLENWAHS,-0.202
17,HMDYNMEEWSLTADQLKSGDTILILNLGKTATLLESTRGKKNVRVRMGNIKTIVETSSIRGNPHQ,-0.878
18,HMALSGTVQNFAGGIMILIFRPFKTGDYIEALGYFGKVSEVNIVSTKLRTFDNKTIILPNGALSNGNIQNY,-0.889
19,HMELNESVLKALYEKFREMSGSKGFITEDEVIIQLEKENPDITPDQQAEIFKYLYDTPLQIY,-0.127
20,HMYTGSEGMAGLEGRAVTEVGPEAGTVLVKGEYWQARSDEPIATDRKIRVIRLEGLRLRVAEIHPEG,-0.0371
21,HMGSRRFGDSNHAAKLTEEQVVEIRELAAAGATTKFLAEMVGMHPNYVGLILRGLSWPEAGGPLRVA,0.11
22,HMEAGTVTVTHAAVYIRSGPGVSYPIAGKAAKNDTYTVLQKDGDWFQIRLPQGNTGWIAGWLVETGT,-0.635
23,HMRKDEFLQTLRRALNGNVPPRVVEENVRYYDGYISDEVRKGRSEEEVIEEIGDPRLIARTIEDTT,0.0826
24,HMTAGTTALNKLQQGMSTQQVQAALGTPSDRTVKESGVELWKYYYPYENMLLYLKFRDGHLVSFGTN,-0.0161
25,HMVKLDDLTGQDKATAEATITNSGLKYSEQQEFSDEVEAGKVIRTDPGAGTSSLKAGDTVTVYVSRGPEN,-0.0778
26,HMHFEWNELRKAINDFLAEQNMNEDKQLGPYFIQRDIVVPETGTEIDSKKFSEVFKHKVIMYLFDDAAKQ,-0.0513

row,Sequence,soluble fraction (log2)
1,HMTEKSTRSVPQEHEGKRLDVAAALLFPVYSRSELARRIDAGYLLLNGKGSTPKTKVHELDLIELLEV,-0.341
2,HMRRRKPLVSYEYGTRVYAPSEGEPRYRVVATDADGQRVFAKFSSEEAARHRAREIEGRLATS,-0.00468
3,HMPALPGNELLRNLMLEHGLKQVDLAEIGSQGVVSEILSGKRRINRRHADLLARRFSLPAELFSR,-0.133
4,HMETIELSAPGGVRLDKLIADGTELSRSAAVKLIEQGNVLVNGSPAGKKDIPAAGAAVEITLPEPQ,-0.134
5,HMTDGYAMRLERLNSLEEYVLNKGTVSLEDLAERFGVSINTIRRDLNELISRGQIKKVYGGVSSLHD,0.0904
6,HMSERVVEIDPSQLRPGLFIRLPSGWMNHPFLFNQFRINSAEQVEIIQKLGLKTVQYLPERSSTQALPRA,-0.499
7,HMLKEDSAYELGLRIFDQALNDYGTSFIDLKEDEYKKVLSIYGYSNPRQLIINIGLGNVIPHLLARDITE,-1.23
8,HMQNSMTTTPDVVGKTGTFAEQMLKAANLNVQFAGDSSGKVVAQDVEAGTSAAYGTIITLTMDS,0.14
9,HMGKEDISQINKLYQNQILDYETYIDTLNSFNIDTKSKDFKNLLDLFIKKSISFETFNKGIINIHNKS,0.11
10,HMNDTLGVNIKRLRKEKGMTQDEVAKAVYTTRYNILRYESGKMTPSSEVIERLEKALGVPTGSLAQ,-0.332
11,HMVEPLIVRNFSINYADIDKLETKIKDYISNSDKSGVNRGRVTSDTRTNMLIVTETASKLAQVEQLLKALD,-0.181
12,HMTGGLTQEQISQLRMLTPQQIEQLRQLQPQQVEMLRQLRPEQVMLLTQLEPQQIMAFMRLEPSVIMQL,-0.215
13,HMHPFELNTVTEGQLKRLPFLSDLQIRELLEYRSRYGKMLTLYELKNVEAFDLETISLLVPFIYISEI,-1.38
14,HMETTVPNVLNHNISTGEILLKENNLNFRIQYIPSNKDEAVGTIINSVPTSGEKVKFGTVVDLKVL,0.0465
15,HMGDLVKGKVVGYDPDNVIVDIGAKTNALVPNREAVVEAGDDIKETLKKGNEYEFLIIRDEDEEGEFL,0.29
16,HMNETTVPDVINQNISTGKIIIEDADLEYRIQYIPSEKSSSIGTIINSIPIYGKRVKSGTIVDLKVLG,-0.0142
17,HMGFPAPFDGKAVAELRRRLGLTRRGLAEELSVSPSTVDKWEQGDVALRSPALTILKILWHQGLKALPP,-1.52
18,HMDSINIDEETAKLGPNAPQIIDGIKKWGQGLVAKGVWSDEDFDEFKVFAATSSGINALNKIRKYY,0.0428
19,HMAAIPEQVSEEVVSAVKASGIDPGKVTKEQWTSLLKGRRTALGSSSGKLFMLSKAPVGYTLKAVNA,0.333
20,HMSEMDNMEWVREQYFQNMIYEIGEWVRDKKTGIVGEVVKRGTNYVTVVQEDFSLHKIWLEDLETTEK,-0.821
21,HMDWFDELKVSTDDSGRVTAPEESEFMFQTSNEKIFAGGDMVRGSDLVVTAIWEGRQAAEGIMDYLD,-0.16
22,HMKELAADFSRRIINARTSKGWSQADLGQRMAETINVIKSAESGKPPTDAVVKKFETVLGVILM,-0.641
23,HMIERLVVSPAAGVFTKKMSVENNTRIDVGHVLGHVGETEVRSPFAGILQNYIAVDGERLTAHQPIAWLRS,0.00717
24,HMARAESYGDIARLEQLLDEHANIAALDPGKLPAVRQQIWTLMRAARMDHDLGLAERPEDDSFDDMLLHV,0.133
